This note sets out measurements from patent publication US20140364360A1.

Assay [1] addresses CCR5 (human) (UniProt P51681). Description: flow cytometry competition on CD8+ T cells of human PBMC; 5P12-RANTES at 0.8 ng/ml or less; competitor antibody 2D7.
The target in assay [2] is CCR5 (human) (UniProt P51681). Kind of assay: flow cytometry competition on CD8+ T cells of human PBMC; 5P12-RANTES at 100 ng/ml or greater; competitor antibody 2D7. A general note: A flow cytometer gives signals particle by particle.

UniProt P51681, sequence (P51681 whole entry): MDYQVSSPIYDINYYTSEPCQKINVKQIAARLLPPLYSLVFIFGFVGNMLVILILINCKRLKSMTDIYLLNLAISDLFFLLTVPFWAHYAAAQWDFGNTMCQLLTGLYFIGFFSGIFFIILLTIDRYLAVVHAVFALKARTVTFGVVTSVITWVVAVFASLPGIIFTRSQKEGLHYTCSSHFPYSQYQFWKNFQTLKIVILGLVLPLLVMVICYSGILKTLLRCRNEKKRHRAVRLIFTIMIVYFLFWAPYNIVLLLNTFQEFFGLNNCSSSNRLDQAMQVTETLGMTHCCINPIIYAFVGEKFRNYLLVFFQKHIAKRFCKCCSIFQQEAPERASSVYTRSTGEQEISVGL

Turning to 5P12-RANTES (ligand), the 2D7% binding was 20% in the assay with CCR5 (human) [1] and below 1% with CCR5 (human) [2].
